Measurements taken from article PMC6635489.

B1: GluK3: T249A/T397A (protein)
parent chain: MTAPWRRLRSLVWEYWAGFLVCAFWIPDSRGMPHVIRIGGIFEYADGPNAQVMNAEEHAFRFSANIINRNRTLLPNTTLTYDIQRIHFHDSFEATKKACDQLALGVVAIFGPSQGSCTNAVQSICNALEVPHIQLRWKHHPLDNKDTFYVNLYPDYASLSHAILDLVQSLKWRSATVVYDDSTGLIRLQELIMAPSRYNIRLKIRQLPIDSDDSRPLLKEMKRGREFRIIFDCSHTMAAQILKQAMAMGMMTEYYHFIFTTLDLYALDLEPYRYSGVNLTGFRILNVDNAHVSAIVEKWSMERLQAAPRAESGLLDGVMMTDAALLYDAVHIVSVCYQRASQMTVNSLQCHRHKPWRFGGRFMNFIKEAQWEGLTGRIVFNKTSGLRTDFDLDIISLKEDGLEKVGVWSPADGLNITEVAKGRGPNVTDSLTNRSLIVTTLLEEPFVMFRKSDRTLYGNDRFEGYCIDLLKELAHILGFSYEIRLVEDGKYGAQDDKGQWNGMVKELIDHKADLAVAPLTITHVREKAIDFSKPFMTLGVSILYRKPNGTNPSVFSFLNPLSPDIWMYVLLAYLGVSCVLFVIARFSPYEWYDAHPCNPGSEVVENNFTLLNSFWFGMGSLMQQGSELMPKALSTRIIGGIWWFFTLIIISSYTANLAAFLTVERMESPIDSADDLAKQTKIEYGAVKDGATMTFFKKSKISTFEKMWAFMSSKPSALVKNNEEGIQRTLTADYALLMESTTIEYITQRNCNLTQIGGLIDSKGYGIGTPMGSPYRDKITIAILQLQEEDKLHIMKEKWWRGSGCPEEENKEASALGIQKIGGIFIVLAAGLVLSVLVAVGEFIYKLRKTAEREQRSFCSTVADEIRFSLTCQRRLKHKPQPPMMVKTDAVINMHTFNDRRLPGKDSMSCSTSLAPVFP
B2: GluK3: T249A (protein)
parent chain: B1 parent chain
B3: GluK3: T249A/S404A (protein)
parent chain: B1 parent chain
B4: GluK3: S404A (protein)
parent chain: B1 parent chain
B5: GluK3: N721A glycan knockout (Methods: T723A) (protein)
parent chain: B1 parent chain
B6: GluK3: T397A/S404A (protein)
parent chain: B1 parent chain
B7: GluK3: T397A (protein)
parent chain: B1 parent chain

Assays:
Conditions in all cases: glycan lost; control: wild type GluK3
[1] = whole-cell patch clamp, 30 mM glutamate, HEK293
[2] = whole-cell dose-response, 30 µM-30 mM glutamate
[3] = surface biotinylation, anti-GluR6/7 blot, HEK293
[4] = two-pulse 30 mM glutamate protocol, whole-cell patch clamp

| Protein | other: desensitization time constant, other: mean weighted tau_des [1] | other: glutamate EC50 of channel current, EC50 [2] | localisation_or_trafficking [3] | other: time constant of recovery from desensitization, other: tau_rec [4] |
| --- | --- | --- | --- | --- |
| B1 | no change, 4.3 ± 0.2 vs 3.8 ± 0.5 | decreases, 6.5 vs 9.5 | no change | – |
| B2 | no change, 3.7 ± 0.4 vs 3.8 ± 0.5 | decreases, 7.2 vs 9.5 | no change | – |
| B3 | no change, 4.1 ± 0.2 vs 3.8 ± 0.5 | decreases, 5.3 vs 9.5 | no change | decreases, 0.3 vs 0.9 |
| B4 | no change, 4.5 ± 0.3 vs 3.8 ± 0.5 | no change, 10.3 vs 9.5 | no change | decreases, 0.5 vs 0.9 |
| B5 | – | – | abolishes | – |
| B6 | no change, 4.0 ± 0.4 vs 3.8 ± 0.5 | decreases, 5.7 vs 9.5 | no change | decreases, 0.5 vs 0.9 |
| B7 | no change, 3.2 ± 0.2 vs 3.8 ± 0.5 | decreases, 3.7 vs 9.5 | no change | no change, 0.8 vs 0.9 |
